{"source": "paper PMC5938747", "tested_on": "Nc1ccn([C@@H]2O[C@H](COP(=O)(O)OP(=O)(O)O)[C@@H](O)[C@H]2O)c(=O)n1", "assay": "purified protein", "details": "10 mM ATP, MgCl2 4 mM excess, pH 8.0, 25 °C"}
{"substance": "Cj1415 (cytidine diphosphoramidate kinase, CDK) (Campylobacter jejuni subsp. jejuni NCTC 11168 = ATCC 700819)", "values": [{"measurement": "Km", "value": "4.2 ± 0.7", "unit": "mM"}, {"measurement": "kcat", "value": "0.64 ± 0.04", "unit": "s⁻¹"}]}
